{"source": "paper PMC6224593", "key": {"[1]": {"target": "ComR of Streptococcus mutans UA159 (Streptococcus mutans UA159)"}, "[2]": {"target": "ComR of Streptococcus mutans UA159 (Streptococcus mutans UA159)", "assay": "ITC; paratox 240 μM injected into ComR 20 μM; 20 mM Tris pH 7.5, 100 mM NaCl, 1 mM β-ME; VP-ITC, 25 °C; one-site model"}, "[3]": {"target": "ComR of Streptococcus mutans UA159 (Streptococcus mutans UA159)", "assay": "ITC; XIP 600 μM injected into ComR 20 μM; 20 mM Tris pH 7.5, 100 mM NaCl, 1 mM β-ME with matched DMSO; VP-ITC, 25 °C; one-site model"}}}
{"substance": "paratox of Streptococcus pyogenes MGAS8232 (from UniProt Q4VUT1 1-60) (natural protein)", "values": [{"measurement": "PsigX-luxAB reporter in S. mutans with MGAS8232 prx in trans, 200 nM XIP, against the empty vector", "setting": "[1]", "result": "> 2", "unit": "fold"}]}
{"substance": "paratox (Prx) of Streptococcus pyogenes MGAS315 (from UniProt Q4VUT1 1-60) (natural protein)", "values": [{"measurement": "PsigX-luxAB reporter in S. mutans with MGAS315 prx in trans, 200 nM XIP, against the empty vector", "setting": "[1]", "result": "> 2", "unit": "fold"}, {"measurement": "Kd", "setting": "[2]", "result": 133, "unit": "nM"}, {"measurement": "stoichiometry N", "setting": "[2]", "result": 0.95}]}
{"substance": "XIP (sigX-inducing peptide) of Streptococcus mutans UA159", "values": [{"measurement": "Kd", "setting": "[3]", "result": 3600, "unit": "nM"}, {"measurement": "stoichiometry N", "setting": "[3]", "result": 1.01}]}
{"substance": "paratox of Streptococcus pyogenes MGAS5005, prophage MGAS5005.3 (prx3) (from UniProt Q4VUT1 1-60) (natural protein)", "values": [{"measurement": "PsigX-luxAB reporter in S. mutans with MGAS5005 prx3 in trans, 200 nM XIP, against the empty vector", "setting": "[1]", "result": "> 2", "unit": "fold"}]}
